{"source": "paper PMC5428420", "about": "“The trimer interface in the quaternary structure of the bifunctional prokaryotic FAD synthetase from Corynebacterium ammoniagenes” (Scientific Reports, 2017)", "molecules": {"B1": {"name": "WT: wild-type bifunctional FAD synthetase from Corynebacterium ammoniagenes (CaFADS) (protein)", "chain": "MDIWYGTAAVPKDLDNSAVTIGVFDGVHRGHQKLINATVEKAREVGAKAIMVTFDPHPVSVFLPRRAPLGITTLAERFALAESFGIDGVLVIDFTRELSGTSPEKYVEFLLEDTLHASHVVVGANFTFGENAAGTADSLRQICQSRLTVDVIDLLDDEGVRISSTTVREFLSEGDVARANWALGRHFYVTGPVVRGAGRGGKELGFPTANQYFHDTVALPADGVYAGWLTILPTEAPVSGNMEPEVAYAAAISVGTNPTFGDEQRSVESFVLDRDADLYGHDVKVEFVDHVRAMEKFDSVEQLLEVMAKDVQKTRTLLAQDVQAHKMAPETYFLQAES"}}, "key": {"CaFADS FMNAT activity": {"target": "CaFADS FMNAT activity (Corynebacterium ammoniagenes, UniProt Q59263)", "assay": "Steady-state kinetics of the FMNAT activity (FMN → FAD), continuous fluorometric assay", "assay_type": "biochemical", "details": "25 °C, 20 mM PIPES pH 7.0, 10 mM MgCl2", "protocol": "The CaFADS FMNAT activity was fluorometrically measured using a continuous assay. […] A Cary Eclipse spectrophotofluorometer with excitation and emission wavelengths of 420 nm and 530 nm, respectively, was used. FAD and FMN fluorescence were individually calibrated using standard solutions and the data were analyzed as previously described."}, "CaFADS:ADP:Mg^2+ complex": {"target": "T1, CaFADS:ADP:Mg^2+ complex (Corynebacterium ammoniagenes, UniProt Q59263)", "T1 construct": "made in house; host or cells: E. coli BL21(DE3)", "details": "FMN binding to preformed CaFADS:ADP:Mg2+ complex; ITC, 25 °C, pH 7.0, 10 mM MgCl2; ref [16], [21]; read-out: K d FADS:ADP:FMN, RFK site; cited from earlier work"}, "CaFADS [1]": {"target": "T2, CaFADS (Corynebacterium ammoniagenes, UniProt Q59263)", "parameters": "made in house; host or cells: E. coli BL21(DE3)", "details": "ITC, ref [16], [21], cited from earlier work"}, "CaFADS RFK activity": {"system": "CaFADS RFK activity", "details": "25 °C", "description": "The CaFADS RFK activity was measured at 25 °C in 500 µl of 20 mM PIPES, 0.8 mM MgCl2, pH 7.0, containing 0.5–45 µM RF and 10–500 µM ATP. Reactions were initiated by addition of ~20 nM of the monomeric enzyme. After 1 min incubation at 25 °C, the reactions were stopped by boiling the mixtures for 5 min. The flavin composition in the supernatant was determined using an Alliance HPLC system (Waters), equipped with a 2707 autosampler and an HSST3 column (4.6 × 150 mm, 3.5 µm, Waters), preceded by a precolumn (4.6 × 20 mm, 3.5 µm, Waters). Flavins (FMN or FAD) produced from RF were quantified using their corresponding standard curves, as previously described[21].\nWhen an excess of RF inhibited the RFK activity, the experimental data were interpreted through a model describing the substrate inhibition of a bi-substrate mechanism[26]. In these situations, the errors in apparent K m and k cat (^app K m and ^app k cat) increased as the inhibition constant (K i) approached K m ^S. Experiments were performed in triplicate."}, "CaFADS [2]": {"target": "T2, CaFADS", "parameters": "made in house; host or cells: E. coli BL21(DE3)", "details": "ITC, ref [16], [21], cited from earlier work", "remark": "listed apart in the source"}, "CaFADS [3]": {"target": "T2, CaFADS", "parameters": "made in house; host or cells: E. coli BL21(DE3)", "details": "ITC, ref [16], [21], cited from earlier work", "remark": "listed apart in the source"}, "CaFADS [4]": {"target": "T2, CaFADS", "details": "ITC; in brackets; ref [16], [21]; cited from earlier work"}, "[5]": {"details": "RF concentration giving ~80% of maximal activity, pH 7.0, 0.8 mM MgCl2"}}, "note": "Where two headings read alike, the source gives them in different places.", "data": [{"molecule": "B1", "values": [{"measurement": "K m ATP FMNAT activity", "setting": "CaFADS FMNAT activity", "result": "22.4 ± 2.0", "unit": "µM"}, {"measurement": "K m FMN FMNAT activity", "setting": "CaFADS FMNAT activity", "result": "10.1 ± 1.0", "unit": "µM"}, {"measurement": "k cat FMNAT activity", "setting": "CaFADS FMNAT activity", "result": "0.0917 ± 0.0083", "unit": "s⁻¹"}, {"measurement": "k cat/K m ATP FMNAT activity", "setting": "CaFADS FMNAT activity", "result": "4170 ± 500", "unit": "M⁻¹ s⁻¹"}, {"measurement": "k cat/K m FMN FMNAT activity", "setting": "CaFADS FMNAT activity", "result": "9000 ± 1200", "unit": "M⁻¹ s⁻¹"}, {"measurement": "Kd", "setting": "CaFADS:ADP:Mg^2+ complex", "result": "0.9 ± 0.1", "unit": "µM"}, {"measurement": "Kd", "setting": "CaFADS [1]; 25 °C, pH 7.0, 10 mM MgCl2, read-out: K d FADS:FAD", "result": 0.74, "unit": "µM"}, {"measurement": "stoichiometry FADS:FAD", "setting": "CaFADS [1]; in brackets", "result": 1}, {"measurement": "K m ATP RFK activity", "setting": "CaFADS RFK activity; [5]", "result": "28.2 ± 3.9", "unit": "µM"}, {"measurement": "k cat RFK activity as function of ATP", "setting": "CaFADS RFK activity; [5]", "result": "2.58 ± 0.083", "unit": "s⁻¹"}, {"measurement": "k cat/K m ATP RFK activity", "setting": "CaFADS RFK activity; [5]", "result": "91700 ± 13000", "unit": "M⁻¹ s⁻¹"}, {"measurement": "k cat (apparent) RFK activity", "setting": "CaFADS RFK activity; saturating ATP, apparent constant (RF substrate inhibition), 20 mM PIPES pH 7.0, 0.8 mM MgCl2", "result": "6.8 ± 3.83", "unit": "s⁻¹"}, {"measurement": "K m RF (apparent) RFK activity", "setting": "CaFADS RFK activity; saturating ATP, apparent constant, 20 mM PIPES pH 7.0, 0.8 mM MgCl2", "result": "11.7 ± 3.0", "unit": "µM"}, {"measurement": "k cat/K m RF RFK activity", "setting": "CaFADS RFK activity; saturating ATP, apparent, pH 7.0, 0.8 mM MgCl2", "result": "582000 ± 360000", "unit": "M⁻¹ s⁻¹"}, {"measurement": "Kd", "setting": "CaFADS [2]; 25 °C, pH 7.0, 10 mM MgCl2, read-out: K d FADS:FMN", "result": 7.8, "unit": "µM"}, {"measurement": "stoichiometry FADS:FMN", "setting": "CaFADS [2]; in brackets", "result": 1}, {"measurement": "Kd", "setting": "CaFADS [3]; 25 °C, pH 7.0, 10 mM MgCl2, average K d,av of two sites, read-out: K d FADS:ATP", "result": 30.2, "unit": "µM"}, {"measurement": "stoichiometry FADS:ATP", "setting": "CaFADS [3]; in brackets", "result": 2}, {"measurement": "stoichiometry FADS:RF", "setting": "CaFADS [4]", "result": 2}]}]}
